Among the data in patent US20230272415 are activity values, retold here.

What all share (test): cell_activity
Data set [1] deals with ZFN 59581 (synthetic construct). The following applies: pair with 59580; 6 ug mRNA, activated T cells; 83 at 2 ug, 72 at 0.5 ug.
Data set [2] relates to ZFN 59440 (synthetic construct). To be noted: pair with 59441; 6 ug mRNA, activated T cells; 82 at 2 ug, 59 at 0.5 ug.
In data set [3] the test system is ZFN 59580 (synthetic construct). To be noted: pair with 59581; 6 ug mRNA, activated T cells; 83 at 2 ug, 72 at 0.5 ug.
In data set [4] the test system is ZFN 59489 (synthetic construct). To be noted: pair with 59488; 6 ug mRNA, activated T cells; 84 at 2 ug, 60 at 0.5 ug.
Data set [5] concerns ZFN 59557 (synthetic construct). To be noted: pair with 59558; 6 ug mRNA, activated T cells; 80 at 2 ug, 55 at 0.5 ug.
The test system of data set [6] is ZFN 59558 (synthetic construct). To be noted: pair with 59557; 6 ug mRNA, activated T cells; 80 at 2 ug, 55 at 0.5 ug.
Data set [7] concerns ZFN 59488 (synthetic construct). The following applies: pair with 59489; 6 ug mRNA, activated T cells; 84 at 2 ug, 60 at 0.5 ug.
The test system of data set [8] is ZFN 59441 (synthetic construct). To be noted: pair with 59440; 6 ug mRNA, activated T cells; 82 at 2 ug, 59 at 0.5 ug.

In the case of “ATAGTGCTGCACAAGGCTGACCACATCC (double strand) [CISH exon 3 target of 59581]”, in data set [1], the activity was found to be 82 % cleavage. On to “CCAGCAAAGGACGAGGTCTAGAAGGCAG (double strand) [CISH exon 2 target of 59440]”, for which the activity in data set [2] was 84 % cleavage. Sequence “CCGGAAAGGCCAGGATGCGTGGCCTGGA (double strand) [CISH exon 3 target of 59580]” returned an activity in data set [3] of 82 % cleavage. In data set [4], “GAGGAGGTGGCAGAGGGTACCCCAGCCC (double strand) [CISH exon 2 target of 59489]” yielded an activity of 89 % cleavage. Consider “GAGTCCAGACGGAAGCTGGAGTCGGCAT (double strand) [CISH exon 3 target of 59557]”, for which the activity in data set [5] is 84 % cleavage.

Regarding “GATGCGTGGCCTGGACAAGCAGTTGGAG (double strand) [CISH exon 3 target of 59558]”, in data set [6], the activity turned out to be 84 % cleavage. On to “GGAAGGCCCCAGCAGGCAAGGGCTGCAT (double strand) [CISH exon 2 target of 59488]”, for which the activity in data set [7] worked out at 89 % cleavage. “GTGGAGCGGACTGGGCAGCGGCCCCTGT (double strand) [CISH exon 2 target of 59441]” returned an activity in data set [8] of 84 % cleavage.
